Here are results for four substances from paper PMC2859858.

The assay addresses ProLabel-LEDGF fusion protein (UniProt O75475). Kind of assay: chemiluminescent co-IP assay. Conditions: 293T cells, 48 h after transfection; parent: est. 4700; read off a plot.
Chain of UniProt O75475 (O75475 whole entry, the tested form may be a part): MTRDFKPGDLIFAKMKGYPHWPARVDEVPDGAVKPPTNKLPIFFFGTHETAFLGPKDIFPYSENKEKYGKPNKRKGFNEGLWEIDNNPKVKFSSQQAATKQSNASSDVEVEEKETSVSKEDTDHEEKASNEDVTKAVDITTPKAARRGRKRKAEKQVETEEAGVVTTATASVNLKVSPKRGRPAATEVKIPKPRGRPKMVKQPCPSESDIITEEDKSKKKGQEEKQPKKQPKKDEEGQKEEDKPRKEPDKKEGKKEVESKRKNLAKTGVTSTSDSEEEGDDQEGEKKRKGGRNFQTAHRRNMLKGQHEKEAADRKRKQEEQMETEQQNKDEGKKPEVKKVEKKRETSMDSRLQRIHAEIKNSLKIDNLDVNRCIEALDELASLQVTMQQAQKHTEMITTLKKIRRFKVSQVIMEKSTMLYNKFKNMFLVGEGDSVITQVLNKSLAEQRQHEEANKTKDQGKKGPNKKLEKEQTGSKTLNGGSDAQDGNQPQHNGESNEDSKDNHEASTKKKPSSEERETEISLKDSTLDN

AcGFP1-IN wild type E170A; H171A: the response worked out at 50 RLU.
For AcGFP1-IN wild type E170A; K173A, the response was 1300 RLU.
The same measure for AcGFP1-IN wild type H171A; K173A: 250 RLU; for AcGFP1-IN wild type H171A; L172A: 130 RLU.
